Test results taken from patent publication US20220356256A1 (published 2022).

Legend:
Assay in all cases: IF staining, CHO cells
[1] = molecular target: T1, FZD6 expressed on CHO cells (UniProt O60353 19-132, limits assumed)
T1 construct: As m62
T1 sequence (looked up): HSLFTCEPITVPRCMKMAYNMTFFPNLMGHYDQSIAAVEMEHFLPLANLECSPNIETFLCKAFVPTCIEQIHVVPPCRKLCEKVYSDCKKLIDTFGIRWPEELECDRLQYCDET

[2] = molecular target: T2, FZD3 expressed on CHO cells (UniProt Q9NPG1 23-136, limits assumed)
T2 construct: As m62
T2 sequence (looked up): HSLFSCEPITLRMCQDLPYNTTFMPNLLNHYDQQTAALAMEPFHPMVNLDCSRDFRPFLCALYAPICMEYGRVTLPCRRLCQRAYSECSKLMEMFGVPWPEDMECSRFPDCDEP

[3] = molecular target: T3, FZD10 expressed on CHO cells (UniProt Q9ULW2 29-150, limits assumed)
T3 construct: As m62
T3 sequence (looked up): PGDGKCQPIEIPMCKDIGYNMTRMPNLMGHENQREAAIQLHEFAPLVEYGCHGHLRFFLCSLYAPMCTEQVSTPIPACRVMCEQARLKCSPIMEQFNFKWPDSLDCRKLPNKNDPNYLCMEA

Measured: binding result

B1: Fab 5017 (Fab, V domains shown)
VH: EVQLVESGGGLVQPGGSLRLSCAASGFNLYYTDMHWVRQAPGKGLEWVASISLFFGYVSYADSVKGRFTISADTSKNTAYLQMNSLRAEDTAVYYCARYLAMDYWGQGTLVTVSS
VL: DIQMTQSPSSLSASVGDRVTITCRASQSVSSAVAWYQQKPGKAPKLLIYSASSLYSGVPSRFSGSRSGTDFTLTISSLQPEDFATYYCQQAAYHWPPLFTFGQGTKVEIKR
notes: Tested as purified Fab; also called 4A1
no binding: [1] | [2] | [3]
